From patent publication US12534534 (F STAR BETA, dated 2026)

T1: NGFR-Fc (human, UniProt P08138 29-250)
T1 construct: bought; also called NGFR (R&D Systems, 367-NR-050/CF); not shown: Fc part of the bought fusion
T1 sequence (looked up): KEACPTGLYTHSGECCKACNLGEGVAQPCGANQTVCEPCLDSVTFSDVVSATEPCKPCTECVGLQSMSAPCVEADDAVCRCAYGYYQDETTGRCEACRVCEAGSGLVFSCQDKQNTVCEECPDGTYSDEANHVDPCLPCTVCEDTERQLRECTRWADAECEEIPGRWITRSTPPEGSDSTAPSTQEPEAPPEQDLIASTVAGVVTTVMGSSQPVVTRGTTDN

T2: TNFRSF1A-Fc (human, UniProt P19438 30-211, limits assumed)
T2 construct: bought; also called TNFRSF1A (R&D Systems, 372-RI-050/CF); not shown: Fc part of the bought fusion
T2 sequence (looked up): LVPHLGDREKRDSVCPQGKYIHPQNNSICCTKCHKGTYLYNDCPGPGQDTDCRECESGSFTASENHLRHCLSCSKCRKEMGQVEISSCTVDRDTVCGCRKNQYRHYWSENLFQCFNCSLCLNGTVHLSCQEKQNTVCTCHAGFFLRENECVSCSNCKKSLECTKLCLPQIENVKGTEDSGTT

T3: DR6-Fc (human, UniProt O75509 42-349, limits assumed)
T3 construct: bought; also called human DR6 (R&D Systems, 144-DR-100); not shown: Fc part of the bought fusion
T3 sequence (looked up): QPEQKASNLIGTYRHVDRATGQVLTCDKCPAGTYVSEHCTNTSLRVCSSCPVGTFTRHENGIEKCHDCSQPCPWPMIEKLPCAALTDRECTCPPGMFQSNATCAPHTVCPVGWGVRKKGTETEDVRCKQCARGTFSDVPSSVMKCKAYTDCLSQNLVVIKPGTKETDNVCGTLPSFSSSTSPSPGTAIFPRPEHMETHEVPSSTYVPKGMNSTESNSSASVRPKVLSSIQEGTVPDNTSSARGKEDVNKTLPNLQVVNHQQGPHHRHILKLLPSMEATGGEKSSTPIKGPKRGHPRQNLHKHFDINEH

T4: GITR-hFc-Avi (human, UniProt Q9Y5U5 26-161)
T4 construct: in-house produced; not shown: hFc and Avi part
T4 sequence: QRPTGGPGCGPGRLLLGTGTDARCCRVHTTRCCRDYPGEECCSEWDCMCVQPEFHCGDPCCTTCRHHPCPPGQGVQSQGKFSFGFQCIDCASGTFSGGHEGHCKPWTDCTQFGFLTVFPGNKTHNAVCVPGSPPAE

T5: TNFRSF1B-Fc (human, UniProt P20333 23-257)
T5 construct: bought; also called TNFRSF1B (R&D Systems, 726-R2-050); not shown: Fc part of the bought fusion
T5 sequence (looked up): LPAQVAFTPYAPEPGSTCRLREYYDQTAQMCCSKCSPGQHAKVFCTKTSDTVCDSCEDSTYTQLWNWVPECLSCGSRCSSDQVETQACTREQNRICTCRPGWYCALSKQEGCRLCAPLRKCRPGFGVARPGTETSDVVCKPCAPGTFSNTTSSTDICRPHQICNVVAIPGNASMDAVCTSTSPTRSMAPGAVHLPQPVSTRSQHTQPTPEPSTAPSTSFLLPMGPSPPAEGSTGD

T6: cyno CD137 on DO11.10-cCD137 cells (cynomolgus, UniProt Q07011 24-255 (human entry))
T6 chain: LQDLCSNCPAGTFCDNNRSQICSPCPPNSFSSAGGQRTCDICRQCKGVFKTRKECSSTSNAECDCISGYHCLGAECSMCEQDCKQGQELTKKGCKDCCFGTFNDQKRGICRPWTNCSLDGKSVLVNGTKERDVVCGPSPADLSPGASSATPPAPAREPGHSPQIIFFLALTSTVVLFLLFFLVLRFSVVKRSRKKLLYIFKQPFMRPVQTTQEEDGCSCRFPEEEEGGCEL


Columns and labels:
NGFR-Fc = target: T1, NGFR-Fc; test: SPR, antigen immobilised on CM5 chip
TNFRSF1A-Fc = target: T2, TNFRSF1A-Fc; test: SPR, antigen immobilised on CM5 chip
DR6-Fc = target: T3, DR6-Fc; test: SPR, antigen immobilised on CM5 chip
CD40-mFc = target: T7, CD40-mFc (human, UniProt P25942 21-193); test: SPR, antigen immobilised on CM5 chip
T7 construct: in-house produced; not shown: mFc part

GITR-hFc-Avi = target: T4, GITR-hFc-Avi; test: SPR, antigen immobilised on CM5 chip
TNFRSF1B-Fc = target: T5, TNFRSF1B-Fc; test: SPR, antigen immobilised on CM5 chip
[1] = target: human CD137 on DO11.10-hCD137 cells (human, UniProt Q07011 24-255); test: cell-based or functional assay
[2] = target: T6, cyno CD137 on DO11.10-cCD137 cells; test: cell-based or functional assay
hCD137-mFc-Avi = target: T8, hCD137-mFc-Avi (human, UniProt Q07011 24-186); test: ELISA, hCD137-mFc-Avi coated, 100 nM antibody, competitor CD137L-His; normalised to G1/11D4 = 0 and G1/MOR7480.1 = 100; mean of n=2
T8 construct: dimer; also called human CD137-mFc-Avi; human CD137-mFc
Experimental: The following day, plates were washed with PBST (PBS+0.05% Tween20™) and blocked with PBS+1% BSA (Sigma, A3059-500G) for 1 hour at room temperature with agitation. After blocking, the plates were washed again with PBST. A 100 nM dilution of each test antibody was prepared in PBS+1% BSA and added to the CD137-coated plates and incubated for 1 hour at room temperature with agitation. […] The plates were then washed with PBST and then incubated with anti-his secondary antibody (R&D Systems, MAB050H) at a 1 in 1000 dilution in PBS for 1 hour at room temperature with agitation. The plates were then washed with PBST and incubated with TMB detection reagent (Thermo Fisher Scientific, 002023) until the positive control wells turned blue and then the reaction was stopped with the addition of 2N H_2SO_4. Plates were read at 450 nm using the plate reader with Gen5 Software, BioTek. Absorbance values of 630 nm were subtracted from those of 450 nm (Correction). The subtracted absorbance values were plotted vs the log concentration of antibody and the resulting curves were fitted using the log (inhibitor) vs response equation in GraphPad Prism.

EC50 (nM), mIL-2 release, DO11.10-hCD137 T cell assay, crosslinked (mean of n = 2) [1] | Emax (mIL-2 pg/ml), DO11.10-hCD137 T cell assay, crosslinked [1] | EC50 (nM), mIL-2 release, DO11.10-cCD137 T cell assay, crosslinked (mean of n = 2) [2] | Emax (mIL-2 pg/ml), DO11.10-cCD137 T cell assay, crosslinked [2] | % CD137 ligand blocking activity (hCD137-mFc-Avi) | Binder | binding result (NGFR-Fc) | binding result (TNFRSF1A-Fc) | binding result (DR6-Fc) | binding result (CD40-mFc) | binding result (GITR-hFc-Avi) | binding result (TNFRSF1B-Fc)
6.1 nM | 17000 pg/mL | 5 nM | 49400 pg/mL | 49.4% | FS20-22-49AA/FS30-10-3 (bispecific antibody, human IgG1, kappa, L234A L235A, V domains shown, M97 (Kabat) to N against FS30-10; also called FS30-10-3 in mAb^2 format) VH: EVQLLESGGGLVQPGGSLRLSCAASGFTFSSYDMSWVRQAPGKGLEWVSDIDPTGSKTDYADSVKGRFTISRDNSKNTLYLQMNSLRAEDTAVYYCARDLNVYGFDYWGQGTLVTVSS VL: EIVLTQSPGTLSLSPGERATLSCRASQSVSSSYLAWYQQKPGQAPRLLIYGASSRATGIPDRFSGSGSGTDFTLTISRLEPEDFAVYYCQQSYSYPVTFGQGTKVEIKR | no binding (tested: 1 µM (protocol of Example 3.1)) | no binding (tested: 1 µM (protocol of Example 3.1)) | no binding (tested: 1 µM (protocol of Example 3.1)) | no binding (tested: 1 µM (protocol of Example 3.1)) | no binding (tested: 1 µM (protocol of Example 3.1)) | no binding (tested: 1 µM (protocol of Example 3.1))
4.7 nM | 16300 pg/mL | 3.7 nM | 50100 pg/mL | 48.1% | FS20-22-49AA/FS30-10-16 (bispecific antibody, human IgG1, kappa, L234A L235A, V domains shown, M97 (Kabat) to L against FS30-10; also called FS30-10-16 in mAb^2 format) VH: EVQLLESGGGLVQPGGSLRLSCAASGFTFSSYDMSWVRQAPGKGLEWVSDIDPTGSKTDYADSVKGRFTISRDNSKNTLYLQMNSLRAEDTAVYYCARDLLVYGFDYWGQGTLVTVSS VL: EIVLTQSPGTLSLSPGERATLSCRASQSVSSSYLAWYQQKPGQAPRLLIYGASSRATGIPDRFSGSGSGTDFTLTISRLEPEDFAVYYCQQSYSYPVTFGQGTKVEIKR | no binding (tested: 1 µM (protocol of Example 3.1)) | no binding (tested: 1 µM (protocol of Example 3.1)) | no binding (tested: 1 µM (protocol of Example 3.1)) | no binding (tested: 1 µM (protocol of Example 3.1)) | no binding (tested: 1 µM (protocol of Example 3.1)) | no binding (tested: 1 µM (protocol of Example 3.1))
9.5 nM | 17200 pg/mL | 5.8 nM | 46900 pg/mL | 53.8% | FS20-22-49AA/FS30-10-12 (bispecific antibody, human IgG1, kappa, L234A L235A, V domains shown, M97 (Kabat) to T against FS30-10; also called FS30-10-12 in mAb^2 format) VH: EVQLLESGGGLVQPGGSLRLSCAASGFTFSSYDMSWVRQAPGKGLEWVSDIDPTGSKTDYADSVKGRFTISRDNSKNTLYLQMNSLRAEDTAVYYCARDLTVYGFDYWGQGTLVTVSS VL: EIVLTQSPGTLSLSPGERATLSCRASQSVSSSYLAWYQQKPGQAPRLLIYGASSRATGIPDRFSGSGSGTDFTLTISRLEPEDFAVYYCQQSYSYPVTFGQGTKVEIKR | no binding (tested: 1 µM (protocol of Example 3.1)) | no binding (tested: 1 µM (protocol of Example 3.1)) | no binding (tested: 1 µM (protocol of Example 3.1)) | no binding (tested: 1 µM (protocol of Example 3.1)) | no binding (tested: 1 µM (protocol of Example 3.1)) | no binding (tested: 1 µM (protocol of Example 3.1))
13.4 nM | 18100 pg/mL | 7.5 nM | 45700 pg/mL | 107% | FS20-22-49AA/FS30-5-37 (bispecific antibody, human IgG1, kappa, L234A L235A, V domains shown, M100D to I and M100H to L against FS30-5; also called FS30-5-37 in mAb^2 format) VH: EVQLLESGGGLVQPGGSLRLNCAASGFTFSSYAMSWVRQAPGKGLEWVSAISGSGGSTYYADSVKGRFTISRDNSKNTLYLQMNSLRAEDTAVYYCARSYDKYWGSSIYSGLDYWGQGTLVTVSS VL: EIVLTQSPGTLSLSPGERATLSCRASQSVSSSYLAWYQQKPGQAPRLLIYGASSRATGIPDRFSGSGSGTDFTLTISRLEPEDFAVYYCQQYYSYYPVTFGQGTKVEIKR | no binding (tested: 1 µM (protocol of Example 3.1)) | no binding (tested: 1 µM (protocol of Example 3.1)) | no binding (tested: 1 µM (protocol of Example 3.1)) | no binding (tested: 1 µM (protocol of Example 3.1)) | no binding (tested: 1 µM (protocol of Example 3.1)) | no binding (tested: 1 µM (protocol of Example 3.1))
5.1 nM | 19800 pg/mL | 6.6 nM | 69700 pg/mL | 6.6% | FS20-22-49AA/FS30-35-14 (bispecific antibody, human IgG1, kappa, L234A L235A, V domains shown, M100F (Kabat) to A against FS30-35; also called FS30-35-14 in mAb^2 format) VH: EVQLLESGGGLVQPGGSLRLSCAASGFTFSAYNIHWVRQAPGKGLEWVSDISPYGGATNYADSVKGRFTISRDNSKNTLYLQMNSLRAEDTAVYYCARNLYELSAYSYGADYWGQGTLVTVSS VL: EIVLTQSPGTLSLSPGERATLSCRASQSVSSSYLAWYQQKPGQAPRLLIYGASSRATGIPDRFSGSGSGTDFTLTISRLEPEDFAVYYCQQYYYSSPITFGQGTKVEIKR | no binding (tested: 1 µM (protocol of Example 3.1)) | no binding (tested: 1 µM (protocol of Example 3.1)) | no binding (tested: 1 µM (protocol of Example 3.1)) | no binding (tested: 1 µM (protocol of Example 3.1)) | no binding (tested: 1 µM (protocol of Example 3.1)) | no binding (tested: 1 µM (protocol of Example 3.1))
